Molecular target: p300 TAZ2 domain with 6xHis tag (p300_(TAZ2)-6×His) (human) (UniProt Q09472)
Test: MST; p300_(TAZ2)-6×His labelled with RED-tris-NTA, constant at 10 nM; peptide varied by serial dilution; 25 mM Tris pH 7.5, 150 mM NaCl, 2.5 mM DTT; 1:1 stoichiometry fit

Kd [µM] | Substance
0.53 | EZH2_(TAD3) peptide (aa 220-231 of EZH2) (from UniProt Q15910 220-231)
0.31 | EZH2_(TAD2) peptide (aa 167-185 of EZH2) (from UniProt Q15910 167-185)
0.52 | EZH2_(TAD1) peptide (aa 142-154 of EZH2) (from UniProt Q15910 142-154)

From paper PMC12312386, “Multiple transactivation domains of EZH2 bind to the TAZ2 domain of p300 and stimulate the acetyltransferase function of p300” (Biochemical Journal, 2025)
